Experimental data taken from the supplement of paper PMC9170038.

Test system: MS2 coat protein
Assay: apparent KD of MS2 coat protein; designed switch direction (-1 OFF switch, 1 ON switch): -1; higher = weaker reporter binding
Procedure, shortened: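 The buffer was Tris-HCl pH 7.5 with KCl, MgCl2, BSA, DTT, tRNA and Tween-20. In it, SNAP-549-labelled MS2 coat protein was titrated in doubling steps from 0.7 or 1.5 nM to 3 µM over chip-bound RNA switches transcribed by stalled E. coli RNA polymerase on Illumina chips. Apparent KD is the per-design median over clusters of curve fits to normalised fluorescence.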

[1] = input ligand: microRNA oligo, concentration not stated
[2] = Eterna round: R95, input ligand: microRNA oligo, concentration not stated
[3] = Eterna round: R95, input ligand: FMN 200 uM
[4] = Eterna round: R95, input ligand: none

| Sequence | apparent KD of MS2 coat protein (input ligand: FMN 200 uM) | apparent KD of MS2 coat protein (input ligand: none) | apparent KD of MS2 coat protein [1] | apparent KD of MS2 coat protein [2] | apparent KD of MS2 coat protein [3] | apparent KD of MS2 coat protein [4] |
| --- | --- | --- | --- | --- | --- | --- |
| AAUAAUUGUGACAUGGGCGACAUGAGGAUCACCCAUGUUACAAGCUUGUUGCUCGUCUUAUAAUUAACCCAUGUCAC [LRO Sensor-off var1-22 mod of Stov1-13-A1 by Brourd] (Eterna round: R97, puzzle: Sensor, turn-off variant 1) | 16.3 nM | 15.2 nM |  |  |  |  |
| AUUGUAUAGGAAGGAUAUAGAAUAUUAUUUUAACAUGAGGAUCACCCAUGUAACCUUAUGUGUAGCUAGAAGGUCCAUUUGUUA [Title] (Eterna round: R96, puzzle: Exclusion NG 2) |  |  | 228 nM |  |  |  |
| AGUCGGCGAGGAUAUACAUGAGGAUCACCCAUGUGAUAGAGUGCACGCGUACGUGUAUGUAGAAGGCGCUGACA [Mat - Exclusion 3 - Mod of JL D97] (puzzle: Exclusion 3) |  |  |  | 61.4 nM |  |  |
| AUUUAGAGAGGAUAUAUAUUGUGAAACAUGAGGAUCACCCAUGUAAUAAUAUGGAUGUAAAUAGAAGGCUCAUUUU [Mat - Exclusion 5 - JL mod - D10] (puzzle: Exclusion 5) |  |  |  | 37.4 nM | 40.2 nM | 41.8 nM |
| AGAUCUCAUGACGUUUGCAACAUGAGGAUCACCCAUGUGAGGAGGGUAAACAAACCAAGCUUCGUGCUCGUCUAUAA [Eternabot (Original) Solution 46] (Eterna round: R97, puzzle: Sensor, turn-off variant 1) | 38.9 nM | 52.3 nM |  |  |  |  |
| AGAAAUGCCCAUGGCCGCAAGCUUUUUACUUGUCUUACCACAUGAGGAUCACCCAUGUGACAUGGAUUCCUUAUGAU [Sensor v3, turn-off variant 2 (MOD of Oranla)] (puzzle: Sensor v3, turn-off variant 2) |  |  |  | 750 nM | 169 nM | 248 nM |
| GAGAAACAUGAGGAUCACCCAUGUGAGGAUAUGAAAAAGAAAAGAAAAGAAAGAAGAAUCAGAAGGCACAAAGU [salish99-ex1_r3_088] (puzzle: Exclusion 1) |  |  |  | 29.7 nM | 31.8 nM | 32.9 nM |
| GAGGAACAUGAGGAUCACCCAUGUAAGGAUAUGCGAGACUAAAGCGCGCAGGCUAAGAGCAGAAGGUGCAAGGA [Excls1-IIa] (puzzle: Exclusion 1) |  |  |  | 28.7 nM | 36 nM | 32.8 nM |
| UAAUGUGCGAGAGGAUAUCGUGUACAAAGUACACGAGAAGGCUUCACAUGAGGAUCACCCAUGUACCGAGGUGAAACACCUUGA [Omei Exc(NG)1 B] (Eterna round: R96, puzzle: Exclusion NG 1) | 950 nM | 383 nM | 110 nM |  |  |  |
| UAAUACGAUGUCAGGAUAUGUAAGACACUUGUAACACAGAAGGGACAUGAGGAUCACCCAUGUAAGGGCUCUUC [Rimala] (puzzle: Brourd's mod of Exclusion 4) |  |  |  | 20.4 nM | 51.4 nM | 22.6 nM |
| UUAAAUCAUGUAGGAUAUGCGUGGCGAAGCUAUGCAGAAGGACAUGAGGAUCACCCAUGUUCUUCCGUCUGCGUACAGACGGAA [Mat - Exclusion NG 1 - Mod of JL - D38] (Eterna round: R96, puzzle: Exclusion NG 1) | 284 nM | 40.8 nM | 33.7 nM |  |  |  |
| UGCAUGUGAGGAUAUGUGUACUGUCUUUUGUUUAGAUGUACACAGAAGGCACAUGAGGAUCACCCAUGUAGUAC [Ex4 - 3 - 34] (puzzle: Exclusion 4) |  |  |  | 59.1 nM |  |  |
| GCCACGGGAGGAUAUACAUAGGAGUUCUCUUCCUGCUCGAGACAUGAGGAUCACCCAUGUAGAAGGCCCGCUGC [Eternabot (L2) Solution 17] (Eterna round: R97, puzzle: Exclusion 2) | 62.2 nM | 385 nM |  |  |  |  |
